Experimental data from publication PMC4163903.

System: ABD-B homeodomain (ABD-B HD) (Drosophila)
Assay: EMSA

abd-A probe
Kd: 5.48 nM
